# Reference: patent US20160238596
# T1: Cyclised HNE substrate lacking the tyrosine residue (CQESIRLPGC attached to the scaffold)
# T1 chain: CQESIRLPGC
# T2: Cyclised MOL488 peptide (YCQESIRLPGC attached to the scaffold derived from 1,3-dibromomethylbenzene)
# T2 chain: YCQESIRLPGC
# Tests used:
# [1] = molecular target: T1, Cyclised HNE substrate lacking the …
# [2] = molecular target: T2, Cyclised MOL488 peptide (YCQESIRLPGC …)
# [3] = molecular target: Indicator molecule containing the cleavable sequence GPQGIFGQ with a terminal biotin group connected via a polyethylene glycol spacer/linker (intact)
Protein,HPLC analysis of elastase digestion [1],mass spectrometry of substrate and hydrolysed product [1],preparative enzymatic cleavage followed by HPLC and mass spectrometry [2],"Reader value (lateral flow, CF1522 gold) at 0.5 µg/ml MMP [3] [reader units]"
Human Neutrophil elastase (Leeblo Solutions inc.) (protein) IVGGRRARPHAWPFMVSLQLRGGHFCGATLIAPNFVMSAAHCVANVNVRAVRVVLGAHNLSRREPTRQVFAVQRIFENGYDPVNLLNDIVILQLNGSATINANVQVAQLPAQGRRLGNGVQCLAMGWGLLGRNRGIASVLQELNVTVVTSLCRRSNVCTLVRGRQAGVCFGDSGSPLVCNGLIHGIASFVRGGCASGLYPDAFAPVAQFVNWIDSIIQ,a single cleavage product results from HNE activity on the peptide,the substrate is cleaved at a single site and that the substrate otherwise remains intact,A new product peak evolved over time,–
MMP 7 (Enzo) (protein) YSLFPNSPKWTSKVVTYRIVSYTRDLPHITVDRLVSKALNMWGKEIPLHFRKVVWGTADIMIGFARGAHGDSYPFDGPGNTLAHAFAPGTGLGGDAHFDEDERWTDGSSLGINFLYAATHELGHSLGMGHSSDPNAVMYPTYGNGDPQNFKLSQDDIKGIQKLYGKRSNSRKK,–,–,–,373
MMP 11 (Enzo) (protein) FVLSGGRWEKTDLTYRILRFPWQLVQEQVRQTMAEALKVWSDVTPLTFTEVHEGRADIMIDFARYWHGDDLPFDGPGGILAHAFFPKTHREGDVHFDYDETWTIGDDQGTDLLQVAAHEFGHVLGLQHTTAAKALMSAFYTFRYPLSLSPDDCRGVQHLYGQPWPTVTSRTPA,–,–,–,280
MMP 12 (Enzo) (protein) FREMPGGPVWRKHYITYRINNYTPDMNREDVDYAIRKAFQVWSNVTPLKFSKINTGMADILVVFARGAHGDFHAFDGKGGILAHAFGPGSGIGGDAHFDEDEFWTTHSGGTNLFLTAVHEIGHSLGLGHSSDPKAVMFPTYKYVDINTFRLSADDIRGIQSLYG,–,–,–,1250
MMP 1 (Enzo) (protein) FVLTEGNPRWEQTHLTYRIENYTPDLPRADVDHAIEKAFQLWSNVTPLTFTKVSEGQADIMISFVRGDHRDNSPFDGPGGNLAHAFQPGPGIGGDAHFDEDERWTNNFREYNLHRVAAHELGHSLGLSHSTDIGALMYPSYTFSGDVQLAQDDIDGIQAIYGRSQNPVQP,–,–,–,478
